Residue numbers refer to the chain shown, from its start.
B1: NCS.1.1 mAb (IgG) (antibody, V domains shown)
VH: QVQLQESGPRLVKPSETLSLTCSVSGESISSGGYYWTWIRQHPGKGLEWIGNIFDTGSTDYSPSLKTRLTISIDTSKNQFYLRLNSATAADTAVYYCARVGFSLETDRPYYLGLDVWGQGTTVTVSS
VL: DIVMTQSPLSLPVTPGEPASISCRSSQSLLHSNGYTYLDWYLQKPGQSPQLLISFTSNRASGVPDRFSGSGSGTYFTLKISRVEAEDVGVYYCMQAVQTPWTFGQGTKVEIK
notes: copies: 2 + 2
B2: NCS.1.3 mAb (IgG) (antibody, V domains shown)
VH: B1 VH with N85T
VL: B1 VL with S10T, S54Y, T56A, T99S
notes: copies: 2 + 2

How the values were obtained:
[1] = molecular target: T1, NA of influenza B-Victoria lineage virus B/Colorado/06/2017 (B/Vic CO17) (Influenza B virus B/Colorado/06/2017 …, UniProt A0A1X9RX69); test: ELISA; details: both partners purified
T1 construct: not shown: His6, N-terminal, kept

[2] = molecular target: sNAp of A/New Caledonia/20/1999 (NC99, H1N1) NA (Influenza A virus A/New …, UniProt Q7TG96, stabilised); test: ELISA; details: both partners purified

Binder	binding result [1]	binding result [2]
B1	binds	binds
B2	binds	binds

From doi:10.1101/2024.11.27.625426 (bioRxiv, 2024)
